Legend:
FAN1 WT [1] = biological target: T1, FAN1 WT (human, UniProt Q9Y2M0 1-1017); assay: cryo-EM; 3.20 Å; EMD-19844; PDB id inconsistent in paper (Data availability says 9EO1; Supp. Table 3 and text imply 9EOA); MST: 25 mM HEPES pH 7.5, 125 mM KCl, 10 mM CaCl2, 5% glycerol, 1 mM TCEP, 0.005% Tween-20, 0.1% BSA, 10 nM Cy5-DNA, 25 °C; SPR buffer not in the material; settings: protein: recombinant; tags: His tag removed by PreScission; double flap: 1:2 1:3; 5' flap and 3' poly-T flap
PCNA WT;FAN1 R507H = PCNA WT;FAN1 R507H (human;human, UniProt P12004;Q9Y2M0 1-261;1-1017, |R507H); assay: SPR; PCNA titrated, 100 nM FAN1; MST: 25 mM HEPES pH 7.5, 125 mM KCl, 10 mM CaCl2, 5% glycerol, 1 mM TCEP, 0.005% Tween-20, 0.1% BSA, 10 nM Cy5-DNA, 25 °C; SPR buffer not in the material; settings: protein: recombinant;recombinant; tags: His tag removed by PreScission;His tag removed by PreScission; chain copies: 3;1; label: 5'-biotin (SPR); blunt; one unpaired nt in strand 2
Chain of PCNA WT;FAN1 R507H (P12004 whole entry, chain 1 of 2): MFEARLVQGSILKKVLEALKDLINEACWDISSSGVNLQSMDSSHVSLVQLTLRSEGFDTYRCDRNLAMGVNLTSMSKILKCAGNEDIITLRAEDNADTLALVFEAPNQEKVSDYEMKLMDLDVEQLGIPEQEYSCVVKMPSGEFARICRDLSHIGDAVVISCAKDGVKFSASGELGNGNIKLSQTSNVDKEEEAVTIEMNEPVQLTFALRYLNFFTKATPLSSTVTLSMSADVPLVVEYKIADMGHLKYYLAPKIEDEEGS
Chain of PCNA WT;FAN1 R507H (Q9Y2M0 whole entry R507H, chain 2 of 2): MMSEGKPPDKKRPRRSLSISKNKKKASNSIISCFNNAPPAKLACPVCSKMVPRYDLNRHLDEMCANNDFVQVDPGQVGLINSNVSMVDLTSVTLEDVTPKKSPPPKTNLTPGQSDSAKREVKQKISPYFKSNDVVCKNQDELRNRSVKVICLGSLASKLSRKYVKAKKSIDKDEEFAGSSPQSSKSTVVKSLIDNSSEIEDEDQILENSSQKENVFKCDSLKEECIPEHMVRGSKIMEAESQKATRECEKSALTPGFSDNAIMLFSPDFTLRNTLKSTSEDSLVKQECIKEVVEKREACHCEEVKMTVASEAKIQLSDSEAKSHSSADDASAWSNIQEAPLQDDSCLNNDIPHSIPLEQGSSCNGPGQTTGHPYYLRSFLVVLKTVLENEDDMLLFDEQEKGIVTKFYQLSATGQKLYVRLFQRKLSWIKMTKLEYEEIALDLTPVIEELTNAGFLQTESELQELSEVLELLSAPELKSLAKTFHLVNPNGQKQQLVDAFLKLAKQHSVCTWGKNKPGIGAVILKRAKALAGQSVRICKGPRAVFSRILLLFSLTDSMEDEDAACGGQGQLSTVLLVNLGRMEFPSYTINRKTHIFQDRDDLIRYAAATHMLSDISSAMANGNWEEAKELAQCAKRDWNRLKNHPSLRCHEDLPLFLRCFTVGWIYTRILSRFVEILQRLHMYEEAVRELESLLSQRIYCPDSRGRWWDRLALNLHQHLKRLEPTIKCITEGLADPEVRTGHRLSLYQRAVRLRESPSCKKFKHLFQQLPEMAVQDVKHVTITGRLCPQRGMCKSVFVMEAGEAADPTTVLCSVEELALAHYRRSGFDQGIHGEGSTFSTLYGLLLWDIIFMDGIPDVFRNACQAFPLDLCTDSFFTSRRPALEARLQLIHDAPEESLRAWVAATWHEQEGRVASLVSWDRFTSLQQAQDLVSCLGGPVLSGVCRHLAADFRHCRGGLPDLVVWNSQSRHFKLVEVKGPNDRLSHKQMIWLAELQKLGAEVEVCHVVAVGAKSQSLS

PCNA WT;FAN1 WT [2] = biological target: T2, PCNA WT;FAN1 WT (human;human, UniProt P12004;Q9Y2M0 1-261;1-1017, |); assay: as above; settings: protein: recombinant;recombinant; tags: His tag removed by PreScission;His tag removed by PreScission; chain copies: 3;1; label: 5'-biotin (SPR); blunt; one unpaired nt in strand 2
T2 sequence (P12004 whole entry, chain 1 of 2): as the sequence (P12004 whole entry, chain 1 of 2) above
T2 sequence (Q9Y2M0 whole entry, chain 2 of 2): as the sequence (Q9Y2M0 whole entry R507H, chain 2 of 2) above, with H507R counted along it

PCNA D232A;trFAN1 R507H = PCNA D232A;trFAN1 R507H (human;human, UniProt P12004;Q9Y2M0 1-261;371-1017, D232A|R507H); assay: SPR; PCNA titrated, 100 nM trFAN1; MST: 25 mM HEPES pH 7.5, 125 mM KCl, 10 mM CaCl2, 5% glycerol, 1 mM TCEP, 0.005% Tween-20, 0.1% BSA, 10 nM Cy5-DNA, 25 °C; SPR buffer not in the material; settings: protein: recombinant;recombinant; tags: His tag removed by PreScission;His tag removed by PreScission; chain copies: 3;1; label: 5'-biotin (SPR); blunt; one unpaired nt in strand 2
Chain of PCNA D232A;trFAN1 R507H (P12004 whole entry D232A, chain 1 of 2): as the sequence (P12004 whole entry, chain 1 of 2) above, with D232A counted along it
Chain of PCNA D232A;trFAN1 R507H (Q9Y2M0 371-1017 R507H, chain 2 of 2): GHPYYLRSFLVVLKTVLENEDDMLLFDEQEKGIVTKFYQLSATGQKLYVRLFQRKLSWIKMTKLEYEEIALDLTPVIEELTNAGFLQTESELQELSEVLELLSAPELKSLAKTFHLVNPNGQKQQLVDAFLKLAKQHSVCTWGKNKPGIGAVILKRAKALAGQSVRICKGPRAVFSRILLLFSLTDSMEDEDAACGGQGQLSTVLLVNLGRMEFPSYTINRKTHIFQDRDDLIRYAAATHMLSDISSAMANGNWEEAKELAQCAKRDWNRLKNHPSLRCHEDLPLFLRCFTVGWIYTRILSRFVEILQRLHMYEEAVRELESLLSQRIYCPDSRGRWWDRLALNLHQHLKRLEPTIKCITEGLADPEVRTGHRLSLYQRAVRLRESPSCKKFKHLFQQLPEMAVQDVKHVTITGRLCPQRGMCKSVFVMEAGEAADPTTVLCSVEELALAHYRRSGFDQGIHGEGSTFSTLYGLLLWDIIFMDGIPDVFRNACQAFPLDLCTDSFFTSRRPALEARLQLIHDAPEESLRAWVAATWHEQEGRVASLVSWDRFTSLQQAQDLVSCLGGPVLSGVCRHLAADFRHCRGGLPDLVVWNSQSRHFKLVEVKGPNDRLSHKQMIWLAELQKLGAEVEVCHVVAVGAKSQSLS

PCNA WT;trFAN1 WT = PCNA WT;trFAN1 WT (human;human, UniProt P12004;Q9Y2M0 1-261;371-1017, |); assay: as above; settings: protein: recombinant;recombinant; tags: His tag removed by PreScission;His tag removed by PreScission; chain copies: 3;1; label: 5'-biotin (SPR); blunt; one unpaired nt in strand 2
Chain of PCNA WT;trFAN1 WT (P12004 whole entry, chain 1 of 2): as the sequence (P12004 whole entry, chain 1 of 2) above
Chain of PCNA WT;trFAN1 WT (Q9Y2M0 371-1017, chain 2 of 2): as the sequence (Q9Y2M0 371-1017 R507H, chain 2 of 2) above, with H137R counted along it

FAN1 WT;PCNA WT = FAN1 WT;PCNA WT (human;human, UniProt Q9Y2M0;P12004 1-1017;1-261, |); assay: SPR; FAN1 titrated, 10 µM PCNA WT; MST: 25 mM HEPES pH 7.5, 125 mM KCl, 10 mM CaCl2, 5% glycerol, 1 mM TCEP, 0.005% Tween-20, 0.1% BSA, 10 nM Cy5-DNA, 25 °C; SPR buffer not in the material; settings: protein: recombinant;recombinant; tags: His tag removed by PreScission;His tag removed by PreScission; copies: 1;3; label: 5'-biotin (SPR); blunt; one unpaired nt in strand 2
Chain of FAN1 WT;PCNA WT (Q9Y2M0 whole entry, chain 1 of 2): as the sequence (Q9Y2M0 whole entry R507H, chain 2 of 2) above, with H507R counted along it
Chain of FAN1 WT;PCNA WT (P12004 whole entry, chain 2 of 2): as the sequence (P12004 whole entry, chain 1 of 2) above

FAN1 WT [3] = biological target: T1, FAN1 WT; assay: SPR; no PCNA; MST: 25 mM HEPES pH 7.5, 125 mM KCl, 10 mM CaCl2, 5% glycerol, 1 mM TCEP, 0.005% Tween-20, 0.1% BSA, 10 nM Cy5-DNA, 25 °C; SPR buffer not in the material; settings: protein: recombinant; tags: His tag removed by PreScission; label: 5'-biotin (SPR); blunt; one unpaired nt in strand 2
FAN1 WT;PCNA D232A = FAN1 WT;PCNA D232A (human;human, UniProt Q9Y2M0;P12004 1-1017;1-261, |D232A); assay: SPR; FAN1 titrated, 10 µM PCNA D232A; MST: 25 mM HEPES pH 7.5, 125 mM KCl, 10 mM CaCl2, 5% glycerol, 1 mM TCEP, 0.005% Tween-20, 0.1% BSA, 10 nM Cy5-DNA, 25 °C; SPR buffer not in the material; settings: protein: recombinant;recombinant; tags: His tag removed by PreScission;His tag removed by PreScission; copies: 1;3; label: 5'-biotin (SPR); blunt; one unpaired nt in strand 2
Chain of FAN1 WT;PCNA D232A (Q9Y2M0 whole entry, chain 1 of 2): as the sequence (Q9Y2M0 whole entry R507H, chain 2 of 2) above, with H507R counted along it
Chain of FAN1 WT;PCNA D232A (P12004 whole entry D232A, chain 2 of 2): as the sequence (P12004 whole entry, chain 1 of 2) above, with D232A counted along it

PCNA WT;FAN1 WT [4] = biological target: T2, PCNA WT;FAN1 WT; assay: SPR; 100 nM FAN1; Kd within 4-fold of homoduplex; koff 8.9e-3 s-1, slowest; MST: 25 mM HEPES pH 7.5, 125 mM KCl, 10 mM CaCl2, 5% glycerol, 1 mM TCEP, 0.005% Tween-20, 0.1% BSA, 10 nM Cy5-DNA, 25 °C; SPR buffer not in the material; settings: protein: recombinant;recombinant; tags: His tag removed by PreScission;His tag removed by PreScission; chain copies: 3;1; label: 5'-biotin (SPR); blunt; (CAG)2 loop in strand 1
[5] = biological target: trFAN1 crystallization construct (human, UniProt Q9Y2M0 364-1017, R507H;K794A;del510-518); assay: X-ray crystallography; 2.65 Å; MST: 25 mM HEPES pH 7.5, 125 mM KCl, 10 mM CaCl2, 5% glycerol, 1 mM TCEP, 0.005% Tween-20, 0.1% BSA, 10 nM Cy5-DNA, 25 °C; SPR buffer not in the material; settings: protein: recombinant; tags: His tag removed by PreScission; double flap: 1:2 1:3; 5' flap 1 nt (pG), 3' flap T4
Chain of trFAN1 crystallization construct (Q9Y2M0 other isoform, or with tags, fused parts or gaps R507H;K794A;del510-518): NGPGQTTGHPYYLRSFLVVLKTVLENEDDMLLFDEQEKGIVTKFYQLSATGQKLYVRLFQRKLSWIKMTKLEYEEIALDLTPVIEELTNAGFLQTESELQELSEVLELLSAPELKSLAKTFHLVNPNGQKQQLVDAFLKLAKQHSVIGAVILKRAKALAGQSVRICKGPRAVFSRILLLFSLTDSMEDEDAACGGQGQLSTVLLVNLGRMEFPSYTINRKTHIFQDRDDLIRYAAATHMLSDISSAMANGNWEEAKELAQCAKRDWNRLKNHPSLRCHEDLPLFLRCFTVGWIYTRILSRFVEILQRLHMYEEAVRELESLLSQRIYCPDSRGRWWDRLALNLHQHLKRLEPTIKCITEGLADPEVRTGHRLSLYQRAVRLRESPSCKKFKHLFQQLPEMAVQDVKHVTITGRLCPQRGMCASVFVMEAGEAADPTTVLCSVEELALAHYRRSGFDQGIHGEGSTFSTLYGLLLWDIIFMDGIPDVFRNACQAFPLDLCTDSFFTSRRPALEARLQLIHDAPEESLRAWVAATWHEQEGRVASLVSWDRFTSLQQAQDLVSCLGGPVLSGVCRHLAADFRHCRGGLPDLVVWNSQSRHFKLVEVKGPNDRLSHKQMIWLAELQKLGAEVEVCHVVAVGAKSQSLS

T1 sequence (Q9Y2M0 whole entry): as the sequence (Q9Y2M0 whole entry R507H, chain 2 of 2) above, with H507R counted along it

B1: 5' flap DNA (cryo-EM substrate) (dsDNA)
DNA 1: CCCGTCCAGGTCTCGTCCGCGCCACTCGTGTCCAGCGTCG
DNA 2: TGCGGACGAGACCTGGACGGG
DNA 3: CGACGCTGGACACGAGTGGCTTTTTTTT
modifications: 5'-phosphate on strand 2
B1: binds (FAN1 WT [1]).

B2: 113 bp homoduplex (dsDNA)
DNA 1: CCGCTTTCTTCCCTTCCTTTGTGCACACGTTCCGAGATATCCTAGCAAGTGATCGTCTATGTAGCTCAAGAGTTCGACTTTCCCCGCTAAGCTCTACATCCGAGGCTCGCCGA
DNA 2: TCGGCGAGCCTCGGATGTAGAGCTTAGCGGGGAAAGTCGAACTCTTGAGCTACATAGTACGATCACTTGCTAGGATATCTCGGAACGTGTGCACAAAGGAAGGGAAGAAAGCGG
B2 was tested, and the Kd (PCNA WT;FAN1 R507H) was 3000 ± 800 nM, the Kd (PCNA WT;FAN1 WT [2]) was 1600 ± 900 nM and the Kd (PCNA D232A;trFAN1 R507H) was 14000 ± 5100 nM. For the same binder, the Kd (PCNA WT;trFAN1 WT) was 3900 ± 1300 nM, the Kd (FAN1 WT;PCNA WT) was 7.2 ± 2.4 nM and the Kd (FAN1 WT [3]) was 7 ± 2.4 nM. It also gave a Kd (FAN1 WT;PCNA D232A) of 5.4 ± 1.7 nM.

B3: 113 bp (CAG)2 extrahelical extrusion (dsDNA)
DNA 1: CCGCTTTCTTCCCTTCCTTTGTGCACACGTTCCGAGATATCCTAGCAAGTGATCGTCAGCAGCTATGTAGCTCAAGAGTTCGACTTTCCCCGCTAAGCTCTACATCCGAGGCTCGCCGA
DNA 2: TCGGCGAGCCTCGGATGTAGAGCTTAGCGGGGAAAGTCGAACTCTTGAGCTACATAGTACGATCACTTGCTAGGATATCTCGGAACGTGTGCACAAAGGAAGGGAAGAAAGCGG
B3: binds (PCNA WT;FAN1 WT [4]).

B4: 5'pG1/3'T4 double flap DNA (crystallography) (dsDNA)
DNA 1: AACACGCCTAGACTCCTCA
DNA 2: TTTGAGGAGTCTTTTT
DNA 3: GAGGCGTG
modifications: 5'-phosphate on strand 3
B4: binds [5].

Reference: PMC12078616, “A FAN1 point mutation associated with accelerated Huntington’s disease progression alters its PCNA-mediated assembly on DNA”
